Results as given in the supplement of paper PMC9170038.

Test system: MS2 coat protein
Assay: apparent KD of MS2 coat protein; designed switch direction (-1 OFF switch, 1 ON switch): 1; higher = weaker reporter binding
Conditions: Eterna round: R98
Method: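 RNA-MaP: designed FMN/MS2 RNA switches (84 nt design region) are transcribed on-chip within common flanks and titrated with SNAP-549-labelled MS2 coat protein (about 1-3000 nM) in 100 mM Tris pH 7.5, 80 mM KCl, 4 mM MgCl2, without or with 200 uM FMN. Median apparent KD per design; activation ratio = KD,OFF / KD,ON.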

Row | Sequence | apparent KD of MS2 coat protein (input ligand: FMN 200 uM) [nM] | apparent KD of MS2 coat protein (input ligand: none) [nM]
1 | ACCAAUGGGUGAGGAUAUGCACAGGAUCACCGUGUAGAAGGCAUCAGGUAGAAGGUGCAGAGGAUCACCCUGUAAGGAUAUAUC [pwkr2 ssNG1 DX.14] | 885 | 563
2 | AGGUAGGUCACAGGAUAUCCCGUGAGCUACAUGAGGAUCACCCAUGUAUCACGACGAAAGAAGAAGGAGAAGGGUGACCCUGAU [Atqula] | 28.3 | 186
3 | AGUUACAAACUCAACAUGAGGAUCACCCAUGUACUCUCAUGUAAGGAUAUACAUUCGUAUAGAAAGUAGAAGGUACUAAUUAUG [JR_SSNG3_Sub90] | 485 | 659
4 | AUGGGUUAAGGAGGAUAUAGAGGGAGGAGUAAACAUGAGGAUCACCCAUGUAUUUAAUUAGUUUACUAGAAGGCUUGUGAUUGU [1.8082e+07] | 52.7 | 33.9
5 | AUUAACGGAGCUACAUGAGGAUCACCCAUGUACGGGUGAUCCUAGGAUAUGCCCGCAACUGUGUCGCAGAAGGAGGGUUGCCCA [Soterixe] | 37.6 | 25.6
6 | CACGUCCUCACAGGAUAUGCUGGACUUUGUCCAGCAGAAGGGUGACAUGAGGAUCACCCAUGUUAAAGGACGUGUAUAUUUAAU [Denovo 24] | 126 | 652
7 | CACUCCCGGUGAGGAUAUGCACAGGAUCACCGUGUAGAAGGCAUCAGGUAGAAGGUGCAGAGGAUCACCCUGUAAGGAUAUAUC [pwkr2 ssNG1 DX.12] | 94.5 | 300
8 | CAGGCUGCCAGAGGAUAAUGGACAUGAGGAUCACCCAUGUGUCAGGAUAUGGGUUUCACAUGGACUCAGAAGGGACCAGCUCGA [Raraator] | 33.8 | 131
9 | CGGAAUUGUACAGGAUAUGAGGGUGCCUGAGCCUCAGAAGGGUAGACCGACAUGAGGAUCACCCAUGUAUGCGGAUAACGUCCG [Sobela] | 1660 | 224
10 | CGUUGUUCCGCAGGAUAUGUAUUGGAUUACAAUACAGAAGGGCGAUAACAUGAGGAUCACCCAUGUGUGGACAAUGAGGAAGAG [SameState #38 NG1] | 54.9 | 789
11 | GCGCGCGGUUGAGGAUAUUUGCGUGCGGAUCGCCCGCGCACAUGAGGAUCACCCAUGUACGAGUAGGAGAAGGUGGCCCGUGUG [Same StateNG2] | 178 | 236
12 | GCUUGCGACGCAGGAUAUGGGUGCCUAAACACGAGGAUCACCCGUGUAAAGGAAGCGAAAAGCUCUCAGAAGGGCGUCGCAGGC [United States 7 - Jieux - Same State NG 2] | 17.2 | 19.2
13 | GGAGACCACACAGGAUAUGCUGGACUUUGUCCAGCAGAAGGGUGUUUAACAUGAGGAUCACCCAUGUAGGUCUCCAAAUUUAAU [Denovo 59] | 17.7 | 60.5
14 | GGCGACGGUGUAGGAUAUGUGGGUUUCAAAGGGAUAGAAGGAUAGUUGGGAAUUAGGACAAGCAAACAUGAGGAUCACCCAUGU [Same STate NG 1] | 34.8 | 44
15 | GGCUAACGGGCUAACAUGAGGAUCACCCAUGUGGACUCAUGGUAGGAUAUGCUGUACUUUGUACAGCAGAAGGGCCGGUGAGCC [Mat - Same State NG 3 - JL Mod - D9] | 283 | 726
16 | GUCCCAGUCACAGGAUAUGGCUCCGUAACGGAACCAGAAGGGUGAUAUUCAGAAAACACACAUGAGGAUCACCCAUGUAAUAAA [Tiorbiti] | 164 | 469
17 | UAAUUAUGGUGAGGAUAUGCACAGGAUCACCGUGUAGAAGGCAUCAGGUAGAAGGUGCAGAGGAUCACCCUGUAAGGAUAUAUC [pwkr2 ssNG1 DX.18] | 102 | 722
18 | UCAACAAGGUGAGGAUAUGCACAGGAUCACCGUGUAGAAGGCAUCAGGUAGAAGGUGCAGAGGAUCACCCUGUAAGGAUAUACA [pwkr2 ssNG1 DX.9] | 526 | 1320
